Measurements reported in PMC7565637.

What was measured:
[1] = target: full-length Le Blanc δ (Le Blanc virus); test: intact-protein LC-MS (reverse phase C3 column, Orbitrap); purified δ diluted to 200 ng/μl in 2% ACN, 0.1% FA; ZORBAX C3-300SB column, gradient 5% to 95% B; Orbitrap Fusion Lumos, positive mode; observed mass compared with the theoretical pentamer mass
[2] = target: Orsay δ(1–101) (Orsay virus); test: crystal structure; Orsay δ(1–101) crystallised by hanging drop, 0.1 M ammonium sulfate, 0.1 M sodium acetate pH 4.6, 25% PEG 4000, 20°C; space group P212121, five chains in the asymmetric unit; 1.8 Å
[3] = target: Orsay virus capsid protein (CP) (Orsay virus); test: co-sedimentation; infectious Orsay virions from culture supernatant of infected rde-1 worms, Triton X-100 treated, pelleted, banded on a 25% to 47.5% iodixanol step gradient (~1.3 g/ml); SDS-PAGE and Western blot with anti-CP antiserum, band intensities measured with Fiji
[4] = target: full-length Santeuil δ (Santeuil virus); test: intact-protein LC-MS (reverse phase C3 column, Orbitrap); purified δ diluted to 200 ng/μl in 2% ACN, 0.1% FA; ZORBAX C3-300SB column, gradient 5% to 95% B; Orbitrap Fusion Lumos, positive mode; observed mass compared with the theoretical pentamer mass

“full-length Le Blanc δ (natural protein)” was tested, and the stoichiometry N [1] was 5.

In the case of Orsay δ(1–101) (domain or fragment), the stoichiometry N [2] is reported as 5.

“Orsay CP-δ fusion protein (natural protein)” showed a pentameric CP-δ fibers per viral particle (fibers per viral particle) [3] of 1.1.

Substance “full-length Santeuil δ (natural protein)” has a stoichiometry N [4] of 5.
